Assay results reported in PMC8896503.

Assays:
Assay in all cases: PBM
[1] = molecular target: T1, TBL1XR1 complex (Homo sapiens (THP-1-derived macrophages)) (UniProt Q9BZK7); settings: IFNg+LPS extract, Nuclear extract PBM (PMA-differentiated THP-1; untreated, LPS 45 min, or IFNg+LPS), antibody detection, buffer, salt, pH and temperature not in the material
T1 sequence: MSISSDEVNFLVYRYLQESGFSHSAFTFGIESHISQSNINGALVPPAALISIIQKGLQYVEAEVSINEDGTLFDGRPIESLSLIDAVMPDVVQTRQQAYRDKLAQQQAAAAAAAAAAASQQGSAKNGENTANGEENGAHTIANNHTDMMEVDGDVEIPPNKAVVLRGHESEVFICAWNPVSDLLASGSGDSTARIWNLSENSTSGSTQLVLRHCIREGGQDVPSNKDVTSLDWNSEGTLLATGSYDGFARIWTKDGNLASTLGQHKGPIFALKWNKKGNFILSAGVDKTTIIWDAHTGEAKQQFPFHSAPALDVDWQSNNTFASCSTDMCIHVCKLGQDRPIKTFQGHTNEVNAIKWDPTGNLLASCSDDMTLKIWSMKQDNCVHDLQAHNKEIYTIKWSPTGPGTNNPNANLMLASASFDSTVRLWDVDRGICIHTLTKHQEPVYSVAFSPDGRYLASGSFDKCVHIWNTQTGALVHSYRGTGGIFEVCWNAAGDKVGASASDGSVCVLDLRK

[2] = molecular target: GCN5 complex (Homo sapiens (THP-1-derived macrophages)) (UniProt Q92830); settings: IFNg+LPS extract; Nuclear extract PBM (PMA-differentiated THP-1; untreated, LPS 45 min, or IFNg+LPS), antibody detection; buffer, salt, pH and temperature not in the material
[3] = molecular target: RBBP5 complex (Homo sapiens (THP-1-derived macrophages)) (UniProt Q15291); settings: Nuclear extract PBM (PMA-differentiated THP-1; untreated, LPS 45 min, or IFNg+LPS), antibody detection, buffer, salt, pH and temperature not in the material
RBBP5 complex (Homo sapiens (THP-1-derived macrophages)), sequence (Q15291 whole entry, one chain of several): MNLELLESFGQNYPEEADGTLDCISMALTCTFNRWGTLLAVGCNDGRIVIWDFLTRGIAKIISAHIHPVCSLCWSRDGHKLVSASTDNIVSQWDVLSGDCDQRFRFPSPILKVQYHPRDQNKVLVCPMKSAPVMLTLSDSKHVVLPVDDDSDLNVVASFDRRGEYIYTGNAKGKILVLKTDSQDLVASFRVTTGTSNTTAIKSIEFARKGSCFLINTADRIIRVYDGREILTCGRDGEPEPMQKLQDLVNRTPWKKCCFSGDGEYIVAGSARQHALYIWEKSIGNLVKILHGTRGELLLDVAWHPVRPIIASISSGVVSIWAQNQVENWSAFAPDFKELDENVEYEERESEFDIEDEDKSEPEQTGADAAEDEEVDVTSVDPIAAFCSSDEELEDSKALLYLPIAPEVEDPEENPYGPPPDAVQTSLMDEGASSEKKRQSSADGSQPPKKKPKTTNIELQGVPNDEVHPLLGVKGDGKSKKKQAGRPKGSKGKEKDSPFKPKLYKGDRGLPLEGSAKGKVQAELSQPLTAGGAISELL

[4] = molecular target: p65 (RELA, NF-kB) (Homo sapiens (THP-1-derived macrophages)) (UniProt Q04206); settings: Nuclear extract PBM (PMA-differentiated THP-1; untreated, LPS 45 min, or IFNg+LPS), antibody detection, buffer, salt, pH and temperature not in the material
p65 (RELA, NF-kB) (Homo sapiens (THP-1-derived macrophages)), sequence (Q04206 whole entry): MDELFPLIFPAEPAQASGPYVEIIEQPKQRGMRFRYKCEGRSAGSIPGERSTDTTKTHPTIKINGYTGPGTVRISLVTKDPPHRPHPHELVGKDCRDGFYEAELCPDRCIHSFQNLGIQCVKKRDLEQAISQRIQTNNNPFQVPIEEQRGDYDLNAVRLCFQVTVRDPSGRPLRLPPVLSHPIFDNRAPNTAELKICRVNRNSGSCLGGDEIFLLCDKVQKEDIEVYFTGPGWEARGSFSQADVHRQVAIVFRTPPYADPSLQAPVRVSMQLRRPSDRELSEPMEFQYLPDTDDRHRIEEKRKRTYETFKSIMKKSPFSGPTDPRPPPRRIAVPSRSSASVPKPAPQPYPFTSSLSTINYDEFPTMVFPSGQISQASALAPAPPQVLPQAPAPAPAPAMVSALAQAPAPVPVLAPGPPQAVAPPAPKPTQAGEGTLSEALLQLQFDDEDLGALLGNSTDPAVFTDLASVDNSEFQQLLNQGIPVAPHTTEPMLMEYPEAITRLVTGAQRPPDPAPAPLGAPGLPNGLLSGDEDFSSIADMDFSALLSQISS

[5] = molecular target: T2, IRF3 (Homo sapiens (THP-1-derived macrophages)) (UniProt Q14653); settings: LPS 45 min extract; likely tethered by NF-kB; Nuclear extract PBM (PMA-differentiated THP-1; untreated, LPS 45 min, or IFNg+LPS), antibody detection; buffer, salt, pH and temperature not in the material
T2 sequence: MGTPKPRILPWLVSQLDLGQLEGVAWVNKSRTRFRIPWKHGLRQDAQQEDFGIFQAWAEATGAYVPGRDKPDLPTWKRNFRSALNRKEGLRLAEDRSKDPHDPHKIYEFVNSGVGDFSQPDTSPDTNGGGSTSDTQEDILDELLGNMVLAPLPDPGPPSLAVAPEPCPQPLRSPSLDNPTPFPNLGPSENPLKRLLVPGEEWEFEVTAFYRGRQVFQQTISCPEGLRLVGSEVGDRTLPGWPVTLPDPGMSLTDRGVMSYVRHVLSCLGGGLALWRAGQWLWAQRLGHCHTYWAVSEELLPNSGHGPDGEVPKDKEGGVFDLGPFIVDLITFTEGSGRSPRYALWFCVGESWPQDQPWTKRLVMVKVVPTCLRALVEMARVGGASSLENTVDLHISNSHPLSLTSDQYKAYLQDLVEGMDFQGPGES

[6] = molecular target: p300 complex (Homo sapiens (THP-1-derived macrophages)) (UniProt Q09472); settings: Nuclear extract PBM (PMA-differentiated THP-1; untreated, LPS 45 min, or IFNg+LPS), antibody detection, buffer, salt, pH and temperature not in the material
p300 complex (Homo sapiens (THP-1-derived macrophages)), sequence (Q09472 whole entry, one chain of several): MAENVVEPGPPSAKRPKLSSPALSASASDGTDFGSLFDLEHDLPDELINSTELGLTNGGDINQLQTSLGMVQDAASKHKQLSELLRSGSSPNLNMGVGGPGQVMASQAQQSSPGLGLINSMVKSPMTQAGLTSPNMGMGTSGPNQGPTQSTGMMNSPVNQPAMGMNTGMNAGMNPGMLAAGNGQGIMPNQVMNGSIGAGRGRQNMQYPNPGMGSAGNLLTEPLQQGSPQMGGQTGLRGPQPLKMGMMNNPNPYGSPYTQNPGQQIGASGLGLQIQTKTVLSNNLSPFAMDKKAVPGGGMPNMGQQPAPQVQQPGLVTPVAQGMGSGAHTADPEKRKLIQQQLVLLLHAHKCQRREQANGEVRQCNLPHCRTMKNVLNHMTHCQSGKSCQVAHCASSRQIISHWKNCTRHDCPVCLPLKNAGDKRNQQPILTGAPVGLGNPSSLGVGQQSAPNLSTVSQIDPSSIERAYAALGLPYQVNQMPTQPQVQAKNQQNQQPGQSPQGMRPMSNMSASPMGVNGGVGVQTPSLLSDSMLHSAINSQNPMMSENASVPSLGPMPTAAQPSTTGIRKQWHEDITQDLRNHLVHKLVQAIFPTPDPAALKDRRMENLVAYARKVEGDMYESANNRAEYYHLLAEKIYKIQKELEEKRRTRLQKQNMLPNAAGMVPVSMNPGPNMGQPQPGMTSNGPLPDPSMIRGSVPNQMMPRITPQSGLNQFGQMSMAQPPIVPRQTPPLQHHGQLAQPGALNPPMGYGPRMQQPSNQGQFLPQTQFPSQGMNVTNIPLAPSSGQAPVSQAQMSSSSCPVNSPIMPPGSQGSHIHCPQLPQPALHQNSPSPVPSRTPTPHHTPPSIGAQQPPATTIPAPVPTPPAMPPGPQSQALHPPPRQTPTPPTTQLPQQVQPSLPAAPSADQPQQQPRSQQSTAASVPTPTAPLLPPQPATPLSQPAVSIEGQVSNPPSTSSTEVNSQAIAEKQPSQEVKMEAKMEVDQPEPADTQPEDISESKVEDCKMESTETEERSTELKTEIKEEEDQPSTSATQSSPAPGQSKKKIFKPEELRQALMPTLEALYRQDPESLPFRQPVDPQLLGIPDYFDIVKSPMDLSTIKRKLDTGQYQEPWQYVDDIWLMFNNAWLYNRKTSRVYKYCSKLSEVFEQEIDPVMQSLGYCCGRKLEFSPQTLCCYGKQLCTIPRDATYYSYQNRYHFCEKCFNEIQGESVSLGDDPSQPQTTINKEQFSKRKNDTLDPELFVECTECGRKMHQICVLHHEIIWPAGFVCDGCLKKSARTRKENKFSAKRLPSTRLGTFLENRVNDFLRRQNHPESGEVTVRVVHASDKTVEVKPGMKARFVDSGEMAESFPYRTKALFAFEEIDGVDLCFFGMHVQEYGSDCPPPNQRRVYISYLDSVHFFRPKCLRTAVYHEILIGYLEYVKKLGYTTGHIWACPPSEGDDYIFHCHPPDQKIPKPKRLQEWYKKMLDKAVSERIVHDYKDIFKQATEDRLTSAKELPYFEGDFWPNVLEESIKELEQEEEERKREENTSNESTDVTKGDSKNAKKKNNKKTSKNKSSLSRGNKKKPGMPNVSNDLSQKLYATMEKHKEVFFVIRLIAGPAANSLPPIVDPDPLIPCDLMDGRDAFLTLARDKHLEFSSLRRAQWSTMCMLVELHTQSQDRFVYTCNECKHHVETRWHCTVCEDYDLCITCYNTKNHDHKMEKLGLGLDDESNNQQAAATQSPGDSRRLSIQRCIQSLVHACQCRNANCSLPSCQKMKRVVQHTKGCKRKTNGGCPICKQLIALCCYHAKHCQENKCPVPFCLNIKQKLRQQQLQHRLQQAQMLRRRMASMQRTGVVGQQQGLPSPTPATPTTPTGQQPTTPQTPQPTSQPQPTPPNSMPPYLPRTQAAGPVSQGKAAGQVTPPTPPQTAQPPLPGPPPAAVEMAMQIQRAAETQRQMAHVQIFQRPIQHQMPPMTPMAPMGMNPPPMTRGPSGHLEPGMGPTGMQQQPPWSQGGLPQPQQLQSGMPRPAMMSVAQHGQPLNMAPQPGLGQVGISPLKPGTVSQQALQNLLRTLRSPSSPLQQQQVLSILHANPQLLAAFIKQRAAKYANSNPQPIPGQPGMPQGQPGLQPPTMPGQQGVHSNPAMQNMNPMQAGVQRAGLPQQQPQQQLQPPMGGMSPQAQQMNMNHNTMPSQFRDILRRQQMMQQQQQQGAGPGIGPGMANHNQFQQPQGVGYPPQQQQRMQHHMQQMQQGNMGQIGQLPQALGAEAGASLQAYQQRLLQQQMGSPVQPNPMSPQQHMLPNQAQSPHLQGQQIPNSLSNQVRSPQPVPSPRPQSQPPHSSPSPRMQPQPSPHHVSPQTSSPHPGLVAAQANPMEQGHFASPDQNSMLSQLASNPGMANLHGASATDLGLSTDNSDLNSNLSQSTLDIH

[7] = molecular target: PU.1 (Homo sapiens (THP-1-derived macrophages)) (UniProt P17947); settings: IFNg+LPS extract; Nuclear extract PBM (PMA-differentiated THP-1; untreated, LPS 45 min, or IFNg+LPS), antibody detection; buffer, salt, pH and temperature not in the material
[8] = molecular target: SMARCA4/BRG1 complex (Homo sapiens (THP-1-derived macrophages)) (UniProt P51532); settings: IFNg+LPS extract, Nuclear extract PBM (PMA-differentiated THP-1; untreated, LPS 45 min, or IFNg+LPS), antibody detection, buffer, salt, pH and temperature not in the material
SMARCA4/BRG1 complex (Homo sapiens (THP-1-derived macrophages)), sequence (P51532 whole entry, one chain of several): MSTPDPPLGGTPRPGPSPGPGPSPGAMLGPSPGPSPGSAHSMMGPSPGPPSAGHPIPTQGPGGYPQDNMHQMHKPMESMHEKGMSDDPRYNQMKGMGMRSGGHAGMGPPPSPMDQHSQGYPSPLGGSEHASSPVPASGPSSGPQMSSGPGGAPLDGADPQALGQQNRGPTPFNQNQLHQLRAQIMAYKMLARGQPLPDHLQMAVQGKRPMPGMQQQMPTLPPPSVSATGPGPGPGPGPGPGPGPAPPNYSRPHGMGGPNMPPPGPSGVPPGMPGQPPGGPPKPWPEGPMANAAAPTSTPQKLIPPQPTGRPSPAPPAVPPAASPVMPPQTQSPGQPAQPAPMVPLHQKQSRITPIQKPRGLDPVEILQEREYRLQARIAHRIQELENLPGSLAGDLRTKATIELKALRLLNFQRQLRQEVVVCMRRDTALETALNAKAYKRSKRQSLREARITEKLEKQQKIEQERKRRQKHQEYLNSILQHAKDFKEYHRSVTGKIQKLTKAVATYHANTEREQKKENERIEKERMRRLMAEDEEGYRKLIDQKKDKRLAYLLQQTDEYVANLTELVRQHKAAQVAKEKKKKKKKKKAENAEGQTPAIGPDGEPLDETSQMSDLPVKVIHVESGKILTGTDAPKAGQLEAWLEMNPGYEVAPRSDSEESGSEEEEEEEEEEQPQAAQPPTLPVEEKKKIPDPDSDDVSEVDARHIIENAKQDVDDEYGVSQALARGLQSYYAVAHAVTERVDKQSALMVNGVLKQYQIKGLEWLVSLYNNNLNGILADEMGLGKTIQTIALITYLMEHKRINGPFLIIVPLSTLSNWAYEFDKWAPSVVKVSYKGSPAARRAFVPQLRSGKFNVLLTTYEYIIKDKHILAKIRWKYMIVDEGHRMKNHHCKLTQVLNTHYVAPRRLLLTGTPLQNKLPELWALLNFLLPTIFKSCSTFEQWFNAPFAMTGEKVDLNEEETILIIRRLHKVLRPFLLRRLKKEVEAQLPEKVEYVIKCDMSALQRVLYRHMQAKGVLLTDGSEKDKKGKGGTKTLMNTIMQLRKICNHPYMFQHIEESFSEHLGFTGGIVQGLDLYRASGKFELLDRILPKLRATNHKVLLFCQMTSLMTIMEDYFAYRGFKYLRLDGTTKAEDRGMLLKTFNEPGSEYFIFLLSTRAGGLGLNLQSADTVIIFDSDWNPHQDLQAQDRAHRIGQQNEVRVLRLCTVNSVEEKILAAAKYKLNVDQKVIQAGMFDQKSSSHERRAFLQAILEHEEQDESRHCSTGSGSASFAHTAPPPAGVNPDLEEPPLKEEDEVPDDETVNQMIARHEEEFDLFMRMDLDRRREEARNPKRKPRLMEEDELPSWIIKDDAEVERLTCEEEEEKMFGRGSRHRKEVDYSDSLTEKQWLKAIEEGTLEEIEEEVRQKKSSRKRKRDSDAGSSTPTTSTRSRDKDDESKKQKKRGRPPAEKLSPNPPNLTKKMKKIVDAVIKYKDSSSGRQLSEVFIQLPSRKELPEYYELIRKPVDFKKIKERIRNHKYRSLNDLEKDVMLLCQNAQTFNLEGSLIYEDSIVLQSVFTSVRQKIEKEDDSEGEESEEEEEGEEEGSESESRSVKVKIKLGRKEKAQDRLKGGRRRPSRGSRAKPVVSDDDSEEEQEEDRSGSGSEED

[9] = not recruited or below detection

GAAATTTAGAACAGAAAGTGAAACCA (double strand) [rs10833823 REF (A)]
binding signal [1]: 9.71 Z score | binding signal [2]: 1.54 Z score | binding signal ([3]; IFNg+LPS extract): 10.6 Z score

GAAATTTAGAACGGAAAGTGAAACCA (double strand) [rs10833823 non-REF (G)]
binding signal [1]: 28.5 Z score | binding signal [2]: 3.36 Z score | binding signal ([3]; IFNg+LPS extract): 15.8 Z score

GCCTAGAAGTCCCATGTTGCAGACTCGAAGGTCTAGGTCTTGATTCGCTTGACGCTGCTG (double strand) [CXCL10 tile 7]
binding signal ([4]; LPS 45 min extract): 0.56 Z score

GCCTAGCAAAACCTGCTGGCTGTTCCTGGGGACTAGGTCTTGATTCGCTTGACGCTGCTG (double strand) [CXCL10 tile 2]
binding signal ([4]; LPS 45 min extract): -0.374 Z score

GCCTAGCCATGTTGCAGACTCGAAGGTATTATCTAGGTCTTGATTCGCTTGACGCTGCTG (double strand) [CXCL10 tile 8]
binding signal ([4]; LPS 45 min extract): 0.079 Z score

GCCTAGCCTGCTGGCTGTTCCTGGGGAAGTCCCTAGGTCTTGATTCGCTTGACGCTGCTG (double strand) [CXCL10 tile 3]
binding signal [5]: 3.17 Z score | binding signal ([4]; LPS 45 min extract): 20.9 Z score | binding signal ([4]; untreated extract): 7.49 Z score | binding signal ([3]; LPS 45 min extract): -1.16 Z score | binding signal ([3]; untreated extract): -0.828 Z score | binding signal ([6]; LPS 45 min extract, replicate 1 (replicate 2: 3.237)): 3.75 Z score | binding signal ([6]; untreated extract, replicate 1 (replicate 2: 0.462)): -0.59 Z score

GCCTAGCTTAGCAAAACCTGCTGGCTGTTCCTCTAGGTCTTGATTCGCTTGACGCTGCTG (double strand) [CXCL10 tile 1]
binding signal ([4]; LPS 45 min extract): 0.046 Z score

GCCTAGGAAGGTATTATTTATTGTAGCCTCCACTAGGTCTTGATTCGCTTGACGCTGCTG (double strand) [CXCL10 tile 11]
binding signal ([4]; LPS 45 min extract): -1.38 Z score

GCCTAGGACTCGAAGGTATTATTTATTGTAGCCTAGGTCTTGATTCGCTTGACGCTGCTG (double strand) [CXCL10 tile 10]
binding signal ([4]; LPS 45 min extract): -0.567 Z score

GCCTAGGTTCCTGGGGAAGTCCCATGTTGCAGCTAGGTCTTGATTCGCTTGACGCTGCTG (double strand) [CXCL10 tile 5]
binding signal ([4]; LPS 45 min extract): 8.52 Z score

GCCTAGTATTATTTATTGTAGCCTCCAAGTTACTAGGTCTTGATTCGCTTGACGCTGCTG (double strand) [CXCL10 tile 12]
binding signal ([4]; LPS 45 min extract): -0.454 Z score

GCCTAGTGGCTGTTCCTGGGGAAGTCCCATGTCTAGGTCTTGATTCGCTTGACGCTGCTG (double strand) [CXCL10 tile 4]
binding signal ([4]; LPS 45 min extract): 15 Z score

GCCTAGTGGGGAAGTCCCATGTTGCAGACTCGCTAGGTCTTGATTCGCTTGACGCTGCTG (double strand) [CXCL10 tile 6]
binding signal ([4]; LPS 45 min extract): 14.3 Z score

GCCTAGTTGCAGACTCGAAGGTATTATTTATTCTAGGTCTTGATTCGCTTGACGCTGCTG (double strand) [CXCL10 tile 9]
binding signal ([4]; LPS 45 min extract): 0.218 Z score

TGATGCAATGAAATGGGGAAGTATTA (double strand) [rs11950944 non-REF (A)]
binding signal [1]: 2.61 Z score | binding signal [7]: 5.99 Z score | binding signal [8]: 2.99 Z score | binding signal ([6]; IFNg+LPS extract): 2.36 Z score

TGATGCAATGAAGTGGGGAAGTATTA (double strand) [rs11950944 REF (G)]
binding signal [1, 9]: 0.37 Z score | binding signal [7]: 4.04 Z score | binding signal [8, 9]: -0.38 Z score | binding signal ([6]; IFNg+LPS extract, not recruited or below detection): -0.13 Z score
